The record followed here is publication doi:10.1101/2024.07.14.603434 (bioRxiv, 2024).

This data set concerns the molecule itself. Nature of the data set: SEC. (Size exclusion chromatography separates by hydrodynamic size, large species first.)

B1: NagS (SCO4393), N-acetylglucosamine-6-phosphate dehydratase (enzyme, Streptomyces coelicolor, UniProt Q9K3V1 1-251, looked up)
chain: MSDHKPAGQFLDAAIDLLRRVRDEEADSIEAAGTLLADTVQNGGRLFAFGAGHSSLAAQDVVYRAGGLALMNLLTVPGVVGIDVMPATLGSALERVDGLASAVLDSSPLRAGDALVIISLSGRNALPVEMAMHARALGLRVIGVTSVAYASQTTSRHASGTFLKDHCDIVLDSKIAVGDAELTLDTVPAPFAPASTVVTAALMQAVTATAAATLADRGIEPPLLRSGNVDGGHEWNARVLEQYGERIFYRR
Usually stoichiometry N stands for the number of molecules, sites or subunits per partner or assembly. B1: the “stoichiometry N” value was found to be 2.
